Laboratory results reported in the supplement of paper PMC10065799, “High-throughput profiling of sequence recognition by tyrosine kinases and SH2 domains using bacterial peptide display” (eLife, 2023).

How the values were obtained:
[1] = target: Grb2 SH2 (UniProt P62993); experiment: SH2 binding enrichment of the phosphorylated peptide, bacterial display (enrichment ratio); higher = better substrate or ligand; peptides without Tyr show the background
[2] = target: SHP2-C SH2; experiment: as above
[3] = target: c-Src SH2; experiment: as above
[4] = target: FGFR3 (UniProt P22607); experiment: phosphorylation enrichment, bacterial display (enrichment ratio); higher = better substrate or ligand; peptides without Tyr show the background
[5] = target: Hck (UniProt P08631); experiment: as above
Chain of Hck (P08631 whole entry, looked up): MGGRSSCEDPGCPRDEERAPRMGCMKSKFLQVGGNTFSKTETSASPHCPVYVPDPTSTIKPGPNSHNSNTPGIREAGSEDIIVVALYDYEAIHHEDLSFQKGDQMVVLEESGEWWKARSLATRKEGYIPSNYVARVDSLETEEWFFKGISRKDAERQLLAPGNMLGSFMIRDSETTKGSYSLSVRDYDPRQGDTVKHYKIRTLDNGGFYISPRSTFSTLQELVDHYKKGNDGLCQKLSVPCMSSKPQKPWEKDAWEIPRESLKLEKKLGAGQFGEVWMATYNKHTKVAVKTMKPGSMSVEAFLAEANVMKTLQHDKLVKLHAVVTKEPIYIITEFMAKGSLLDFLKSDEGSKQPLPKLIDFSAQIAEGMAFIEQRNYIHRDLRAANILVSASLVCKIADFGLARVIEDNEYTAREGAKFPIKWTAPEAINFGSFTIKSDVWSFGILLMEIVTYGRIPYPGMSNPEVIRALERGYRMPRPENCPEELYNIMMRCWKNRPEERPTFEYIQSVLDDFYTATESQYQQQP

[6] = target: Jak2 (UniProt O60674); experiment: as above
Chain of Jak2 (O60674 whole entry, looked up): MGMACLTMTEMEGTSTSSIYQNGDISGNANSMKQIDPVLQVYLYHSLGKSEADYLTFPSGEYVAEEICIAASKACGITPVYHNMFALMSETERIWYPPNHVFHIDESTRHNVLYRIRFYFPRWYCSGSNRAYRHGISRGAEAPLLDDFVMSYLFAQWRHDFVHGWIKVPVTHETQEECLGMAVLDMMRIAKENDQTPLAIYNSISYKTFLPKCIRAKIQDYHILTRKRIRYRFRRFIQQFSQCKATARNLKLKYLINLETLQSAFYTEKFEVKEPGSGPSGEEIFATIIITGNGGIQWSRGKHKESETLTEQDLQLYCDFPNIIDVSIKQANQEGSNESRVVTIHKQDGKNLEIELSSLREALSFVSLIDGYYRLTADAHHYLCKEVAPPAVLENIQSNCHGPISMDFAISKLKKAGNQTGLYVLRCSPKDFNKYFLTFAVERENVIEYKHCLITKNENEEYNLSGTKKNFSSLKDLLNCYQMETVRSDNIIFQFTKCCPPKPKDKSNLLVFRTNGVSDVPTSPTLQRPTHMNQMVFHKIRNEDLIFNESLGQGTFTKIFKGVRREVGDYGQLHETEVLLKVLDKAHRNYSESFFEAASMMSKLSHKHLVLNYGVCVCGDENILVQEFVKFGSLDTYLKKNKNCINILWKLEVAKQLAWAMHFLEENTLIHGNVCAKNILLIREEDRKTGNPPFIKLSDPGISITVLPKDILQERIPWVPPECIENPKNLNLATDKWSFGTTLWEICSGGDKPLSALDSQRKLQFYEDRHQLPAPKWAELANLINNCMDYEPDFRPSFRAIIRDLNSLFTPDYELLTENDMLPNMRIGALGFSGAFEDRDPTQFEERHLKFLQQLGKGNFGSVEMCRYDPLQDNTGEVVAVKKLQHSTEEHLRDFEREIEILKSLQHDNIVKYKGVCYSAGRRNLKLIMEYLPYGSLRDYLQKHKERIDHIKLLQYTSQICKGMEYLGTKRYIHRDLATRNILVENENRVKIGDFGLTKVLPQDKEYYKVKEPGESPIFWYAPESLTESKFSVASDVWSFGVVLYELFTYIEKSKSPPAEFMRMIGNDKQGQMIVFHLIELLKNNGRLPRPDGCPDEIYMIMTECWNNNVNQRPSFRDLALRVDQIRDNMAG

[7] = system: c-Abl (mouse); experiment: as above
[8] = target: EPHB2 (UniProt P29323); experiment: as above
[9] = system: AncSZ; experiment: as above
[10] = system: Fer (mouse); experiment: as above
[11] = system: c-Src; experiment: as above
[12] = target: EPHB1 (UniProt P54762); experiment: as above
Chain of EPHB1 (P54762 whole entry, looked up): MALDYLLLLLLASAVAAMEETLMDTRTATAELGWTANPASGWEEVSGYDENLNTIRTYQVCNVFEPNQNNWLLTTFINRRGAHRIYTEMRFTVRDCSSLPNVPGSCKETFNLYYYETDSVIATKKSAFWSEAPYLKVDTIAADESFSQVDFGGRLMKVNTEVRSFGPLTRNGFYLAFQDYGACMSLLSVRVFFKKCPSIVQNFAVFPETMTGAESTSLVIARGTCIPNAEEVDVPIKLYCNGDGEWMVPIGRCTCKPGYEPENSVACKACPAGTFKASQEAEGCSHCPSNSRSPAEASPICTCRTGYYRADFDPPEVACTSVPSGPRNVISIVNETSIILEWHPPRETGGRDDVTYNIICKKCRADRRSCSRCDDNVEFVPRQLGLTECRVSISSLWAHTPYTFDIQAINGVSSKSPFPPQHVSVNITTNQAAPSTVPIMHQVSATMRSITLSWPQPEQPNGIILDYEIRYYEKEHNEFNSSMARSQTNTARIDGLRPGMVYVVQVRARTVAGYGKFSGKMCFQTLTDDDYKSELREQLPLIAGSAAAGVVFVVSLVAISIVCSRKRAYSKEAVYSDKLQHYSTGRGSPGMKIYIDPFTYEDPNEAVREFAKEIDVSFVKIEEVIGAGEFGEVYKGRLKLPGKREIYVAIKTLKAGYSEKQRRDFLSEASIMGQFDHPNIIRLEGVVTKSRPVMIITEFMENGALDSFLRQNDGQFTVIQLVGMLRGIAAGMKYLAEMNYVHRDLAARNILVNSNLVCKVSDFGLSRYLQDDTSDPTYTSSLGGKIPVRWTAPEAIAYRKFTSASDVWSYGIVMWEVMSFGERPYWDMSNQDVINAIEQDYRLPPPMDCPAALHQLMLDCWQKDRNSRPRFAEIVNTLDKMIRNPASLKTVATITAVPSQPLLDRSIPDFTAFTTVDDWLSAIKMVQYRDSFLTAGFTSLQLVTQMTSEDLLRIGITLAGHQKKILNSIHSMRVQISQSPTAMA

[13] = target: Fes (UniProt P07332); experiment: as above
Chain of Fes (P07332 whole entry, looked up): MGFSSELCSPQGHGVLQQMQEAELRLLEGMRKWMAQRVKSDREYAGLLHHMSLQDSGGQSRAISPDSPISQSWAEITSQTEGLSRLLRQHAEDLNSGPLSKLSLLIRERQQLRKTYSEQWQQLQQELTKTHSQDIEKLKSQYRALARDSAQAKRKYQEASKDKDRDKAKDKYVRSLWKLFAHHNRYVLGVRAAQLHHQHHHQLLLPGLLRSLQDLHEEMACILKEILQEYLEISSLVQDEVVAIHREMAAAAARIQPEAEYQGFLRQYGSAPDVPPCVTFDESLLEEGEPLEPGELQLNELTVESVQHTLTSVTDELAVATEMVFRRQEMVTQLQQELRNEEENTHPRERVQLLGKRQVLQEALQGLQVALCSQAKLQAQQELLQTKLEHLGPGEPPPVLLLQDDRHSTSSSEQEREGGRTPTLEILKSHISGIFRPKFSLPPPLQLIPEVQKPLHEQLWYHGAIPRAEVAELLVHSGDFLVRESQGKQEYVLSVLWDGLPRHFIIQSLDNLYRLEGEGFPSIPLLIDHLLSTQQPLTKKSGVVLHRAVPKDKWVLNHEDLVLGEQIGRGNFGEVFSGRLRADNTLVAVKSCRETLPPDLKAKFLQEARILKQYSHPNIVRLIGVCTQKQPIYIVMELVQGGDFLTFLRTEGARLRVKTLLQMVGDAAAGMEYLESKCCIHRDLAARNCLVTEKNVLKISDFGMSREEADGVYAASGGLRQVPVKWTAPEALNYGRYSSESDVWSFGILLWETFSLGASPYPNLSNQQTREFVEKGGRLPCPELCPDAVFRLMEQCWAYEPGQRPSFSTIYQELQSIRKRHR

[14] = target: Fyn (UniProt P06241); experiment: as above
Chain of Fyn (P06241 whole entry, looked up): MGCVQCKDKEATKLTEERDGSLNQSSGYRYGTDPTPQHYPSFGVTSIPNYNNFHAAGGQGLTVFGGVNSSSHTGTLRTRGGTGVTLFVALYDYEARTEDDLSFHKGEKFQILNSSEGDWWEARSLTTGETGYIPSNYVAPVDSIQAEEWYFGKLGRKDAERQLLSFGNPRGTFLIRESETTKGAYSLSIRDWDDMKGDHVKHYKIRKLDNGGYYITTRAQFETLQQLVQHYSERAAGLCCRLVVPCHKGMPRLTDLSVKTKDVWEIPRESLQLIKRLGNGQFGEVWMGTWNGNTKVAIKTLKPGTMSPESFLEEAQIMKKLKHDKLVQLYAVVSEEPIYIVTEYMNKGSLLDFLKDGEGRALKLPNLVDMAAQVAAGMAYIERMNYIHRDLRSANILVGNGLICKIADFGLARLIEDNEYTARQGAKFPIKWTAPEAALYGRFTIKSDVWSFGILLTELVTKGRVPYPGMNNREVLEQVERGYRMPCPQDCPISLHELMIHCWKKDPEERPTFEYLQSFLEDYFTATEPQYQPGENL

[15] = target: FGFR1 (UniProt P11362); experiment: as above
[16] = target: MERTK (UniProt Q12866); experiment: as above
Chain of MERTK (Q12866 whole entry, looked up, the tested form may be a part): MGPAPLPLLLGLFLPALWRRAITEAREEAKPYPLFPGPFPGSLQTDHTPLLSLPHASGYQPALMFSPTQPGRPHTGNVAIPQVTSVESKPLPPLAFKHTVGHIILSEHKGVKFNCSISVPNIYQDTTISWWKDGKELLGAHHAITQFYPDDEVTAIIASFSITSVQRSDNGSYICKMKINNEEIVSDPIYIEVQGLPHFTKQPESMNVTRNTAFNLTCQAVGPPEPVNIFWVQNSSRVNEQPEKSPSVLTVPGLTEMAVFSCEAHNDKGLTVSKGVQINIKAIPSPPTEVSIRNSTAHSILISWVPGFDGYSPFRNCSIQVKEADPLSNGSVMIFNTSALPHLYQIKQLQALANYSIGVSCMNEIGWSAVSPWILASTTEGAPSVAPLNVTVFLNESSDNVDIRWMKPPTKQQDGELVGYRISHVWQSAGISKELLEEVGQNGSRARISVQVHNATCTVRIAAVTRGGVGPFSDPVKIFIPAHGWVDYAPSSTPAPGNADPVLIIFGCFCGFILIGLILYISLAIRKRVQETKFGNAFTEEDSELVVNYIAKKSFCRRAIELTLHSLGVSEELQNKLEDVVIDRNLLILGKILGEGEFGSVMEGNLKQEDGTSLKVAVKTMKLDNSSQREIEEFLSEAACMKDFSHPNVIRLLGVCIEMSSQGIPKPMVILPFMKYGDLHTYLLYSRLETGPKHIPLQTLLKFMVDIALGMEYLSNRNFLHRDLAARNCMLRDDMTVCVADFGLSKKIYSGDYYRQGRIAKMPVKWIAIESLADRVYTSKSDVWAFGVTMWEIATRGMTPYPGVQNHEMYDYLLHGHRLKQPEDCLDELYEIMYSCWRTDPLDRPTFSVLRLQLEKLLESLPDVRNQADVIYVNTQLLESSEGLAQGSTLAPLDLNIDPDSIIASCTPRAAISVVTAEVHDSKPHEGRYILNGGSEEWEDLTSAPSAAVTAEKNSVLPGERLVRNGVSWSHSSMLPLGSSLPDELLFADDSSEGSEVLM
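Wherever SH2 binding enrichment of the phosphorylated peptide, bacterial display is given: peptide library displayed on the E. coli surface as eCPX fusions, selected cells deep-sequenced, score is each peptide's frequency after selection divided by its frequency in the input.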
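Wherever phosphorylation enrichment, bacterial display is given: 11-residue human phosphosite peptides and single-mutation variants displayed on the E. coli surface, counted by deep sequencing, each peptide's frequency after selection divided by its frequency in the unselected input library; frequency after pTyr selection over input frequency; kinase dosed for 20-30% of maximal phosphorylation in three min.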

Row | Sequence | SH2 binding enrichment [1] | SH2 binding enrichment [2] | SH2 binding enrichment [3] | phosphorylation enrichment [4] | phosphorylation enrichment [5] | phosphorylation enrichment [6] | phosphorylation enrichment [7] | phosphorylation enrichment [8] | phosphorylation enrichment [9] | phosphorylation enrichment [10] | phosphorylation enrichment [11] | phosphorylation enrichment [12] | phosphorylation enrichment [13] | phosphorylation enrichment [14] | phosphorylation enrichment [15] | phosphorylation enrichment [16]
1 | RVILRYVNPGT [LAMA3_Y791] | 1.44 | 0.632 | 0.717 | 0.883 | 0.561 | 0.947 | 0.663 | 0.666 | 1.06 | 0.606 | 0.448 | 0.838 | 1.13 | 0.591 | 0.538 | 0.385
2 | RYFTTYDTNGR [CLCA1_Y665] | 0.777 | 1.24 | 0.556 | 0.598 | 0.943 | 0.742 | 0.296 | 0.698 | 0.657 | 0.471 | 0.774 | 0.672 | 0.746 | 0.693 | 0.709 | 0.557
3 | RYVTRHIYNRE [HLA-DQB1_Y62_Y62H] | 0.718 | 0.64 | 0.414 | 0.525 | 0.662 | 0.589 | 0.751 | 0.795 | 0.966 | 0.469 | 0.874 | 0.525 | 0.777 | 0.73 | 0.291 | 0.857
4 | SAPPSHEETVA [LITAF_Y23_Y23H] | 0.62 | 0.549 | 0.4 | 0.84 | 0.342 | 0.817 | 0.489 | 0.393 | 0.453 | 0.524 | 0.404 | 0.435 | 0.597 | 0.481 | 0.374 | 0.338
5 | SDQRRYSLIDP [CLIP2_Y972_R977P] | 0.889 | 3.82 | 15.9 | 0.64 | 0.466 | 0.587 | 0.488 | 0.567 | 0.683 | 0.545 | 0.383 | 0.56 | 0.719 | 0.574 | 0.533 | 1.3
6 | SDQRRYSLIDR [CLIP2_Y972] | 0.833 | 0.861 | 3.35 | 0.421 | 0.366 | 0.479 | 0.467 | 0.444 | 0.508 | 0.412 | 0.358 | 0.327 | 0.558 | 0.394 | 0.356 | 0.419
7 | SEDSEYYRAFE [CASQ2_Y178_K180R] | 0.901 | 0.67 | 0.47 | 1.24 | 0.685 | 1.29 | 0.89 | 0.696 | 2.7 | 0.515 | 0.824 | 0.67 | 1.29 | 0.823 | 0.869 | 0.523
8 | SEKIVYGHLDD [ACO2_Y71] | 0.865 | 0.926 | 0.56 | 0.573 | 0.639 | 0.815 | 0.793 | 0.556 | 0.829 | 0.505 | 0.847 | 0.499 | 1 | 0.817 | 0.432 | 0.359
9 | SENAFYLSPHI [COL6A3_Y2827_D2831H] | 0.776 | 0.606 | 0.461 | 0.693 | 0.863 | 3.25 | 1.96 | 0.573 | 1.26 | 0.775 | 0.491 | 0.576 | 0.887 | 0.487 | 0.653 | 0.696
10 | SFGESYDNSKS [MAN1B1_Y60_N59S] | 0.928 | 0.568 | 0.437 | 0.595 | 0.482 | 0.939 | 0.747 | 0.508 | 0.813 | 0.433 | 0.508 | 0.474 | 0.953 | 0.466 | 0.493 | 0.502
11 | SGETEYNPTEA [NBEAL2_Y2748] | 0.803 | 0.628 | 0.488 | 0.82 | 0.707 | 1.26 | 1.16 | 0.671 | 1.47 | 0.604 | 0.59 | 0.729 | 1.55 | 0.69 | 0.77 | 0.562
12 | SGVSYYINLCQ [IGF2R_Y2025_N2020S] | 0.743 | 0.642 | 0.531 | 0.824 | 0.51 | 1.32 | 0.803 | 0.635 | 1.01 | 1.03 | 0.33 | 0.682 | 1.5 | 0.38 | 0.543 | 0.316
13 | SHSMRYFDTAV [HLA-C_Y31] | 0.716 | 0.467 | 0.51 | 0.521 | 0.424 | 0.492 | 0.436 | 0.329 | 0.57 | 0.384 | 0.367 | 0.42 | 0.586 | 0.416 | 0.471 | 0.497
14 | SLFNGYVYSGM [NEIL3_Y71_V76M] | 1.06 | 2.05 | 2.6 | 0.659 | 2.72 | 1.15 | 0.625 | 0.579 | 0.844 | 0.581 | 5.4 | 0.653 | 0.994 | 5.64 | 0.585 | 0.548
15 | SQGRQYQELPR [KCNH2_Y1009_R1005Q] | 0.82 | 0.545 | 1.41 | 0.477 | 0.668 | 0.517 | 0.473 | 0.402 | 0.666 | 0.402 | 0.423 | 0.354 | 0.568 | 0.45 | 0.483 | 0.412
16 | SRFQFYFQQKG [CHKB_Y381] | 0.692 | 0.728 | 0.473 | 1.02 | 0.551 | 1.47 | 0.99 | 0.612 | 1.63 | 0.597 | 0.379 | 0.938 | 1.56 | 0.48 | 0.579 | 0.369
17 | SSAETYSRMRL [NBEAL2_Y1835] | 0.719 | 0.724 | 0.691 | 0.44 | 0.709 | 0.501 | 0.509 | 0.436 | 0.513 | 0.54 | 0.471 | 0.443 | 0.577 | 0.431 | 0.393 | 0.412

Further lines, with some results ahead:

Row | SH2 binding enrichment [1] | SH2 binding enrichment [2] | SH2 binding enrichment [3] | Sequence | phosphorylation enrichment [4] | phosphorylation enrichment [5] | phosphorylation enrichment [6] | phosphorylation enrichment [7] | phosphorylation enrichment [8] | phosphorylation enrichment [9] | phosphorylation enrichment [10] | phosphorylation enrichment [11] | phosphorylation enrichment [12] | phosphorylation enrichment [13] | phosphorylation enrichment [14] | phosphorylation enrichment [15] | phosphorylation enrichment [16]
18 | 0.769 | 0.764 | 0.584 | SAPDSYIGIGN [SLC38A4_Y27] | 0.556 | 0.495 | 0.739 | 0.594 | 0.533 | 0.669 | 0.404 | 0.437 | 0.484 | 0.742 | 0.511 | 0.502 | 0.59
19 | 0.79 | 0.757 | 0.814 | SAPDSYIRIGN [SLC38A4_Y27_G29R] | 0.436 | 0.47 | 0.52 | 0.483 | 0.396 | 0.594 | 0.35 | 0.352 | 0.359 | 0.796 | 0.357 | 0.424 | 0.488
20 | 1.05 | 0.901 | 0.476 | SDFSRYARTSI [TERT_Y949_S948R_YF] | 0.487 | 0.484 | 0.502 | 0.502 | 0.466 | 0.537 | 0.358 | 0.442 | 0.463 | 0.6 | 0.408 | 0.48 | 0.48
21 | 0.725 | 0.637 | 0.535 | SDYSSYARTSI [TERT_Y949] | 0.7 | 0.862 | 0.725 | 0.639 | 2.84 | 0.792 | 0.542 | 0.897 | 1.63 | 0.558 | 0.845 | 0.553 | 0.52
22 | 0.819 | 0.746 | 0.534 | SEDANYMRVSC [TTC3_Y1288_K1289M] | 0.742 | 0.563 | 0.743 | 0.7 | 1.42 | 1.03 | 0.645 | 0.468 | 2.98 | 0.958 | 0.529 | 0.735 | 0.455
23 | 0.799 | 0.451 | 0.723 | SEELHYYVQNH [UQCRC2_Y207_F208Y] | 4.09 | 0.732 | 1.68 | 2.09 | 0.788 | 2.04 | 0.954 | 1.48 | 0.89 | 1.62 | 0.633 | 3.68 | 2.86
24 | 0.9 | 0.741 | 0.492 | SEPDLYFDPRG [PKP1_Y160_C161Y_YF] | 6.9 | 9.33 | 3.41 | 2.71 | 11.4 | 2.86 | 0.841 | 4.46 | 13.1 | 1.14 | 4.59 | 9.25 | 4.69
25 | 0.672 | 0.708 | 0.541 | SGFESYGSSSY [RPA2_Y9] | 0.462 | 0.474 | 0.821 | 0.718 | 0.478 | 0.582 | 0.403 | 0.481 | 0.341 | 0.765 | 0.44 | 0.368 | 0.382
26 | 0.897 | 0.903 | 0.726 | SILAVYSKDIY [PANK2_Y400_N404I] | 0.713 | 2.48 | 1.04 | 0.537 | 0.788 | 1.07 | 0.45 | 2.84 | 0.745 | 0.924 | 2.43 | 0.518 | 2.91
27 | 0.838 | 0.73 | 0.466 | SILTVYSKDNF [PANK2_Y400_A398T_YF] | 0.627 | 0.548 | 0.907 | 0.456 | 0.514 | 0.814 | 0.481 | 0.6 | 0.549 | 0.894 | 0.516 | 0.572 | 0.454
28 | 0.975 | 0.726 | 0.654 | SKDSAYVTWEP | 1.06 | 1.32 | 0.914 | 0.702 | 0.576 | 0.988 | 1.65 | 1.59 | 0.518 | 0.971 | 1.5 | 1.48 | 1.14
29 | 1.3 | 1.12 | 1.57 | SKHRLYSDLQT [PTCHD1_Y84] | 0.411 | 0.422 | 0.406 | 0.476 | 0.484 | 0.5 | 0.654 | 0.371 | 0.443 | 0.715 | 0.376 | 0.339 | 0.645
30 | 0.861 | 0.814 | 0.522 | SLESAYPEGSQ [TTF1_Y357] | 0.629 | 0.593 | 0.712 | 0.601 | 0.574 | 0.877 | 0.457 | 0.406 | 0.463 | 0.968 | 0.539 | 0.61 | 0.366
31 | 0.966 | 0.762 | 0.553 | SLIDMYSEVLA [OPA1_Y268_D273A] | 0.832 | 0.873 | 0.925 | 0.539 | 0.869 | 1.24 | 0.891 | 1.61 | 0.766 | 1.03 | 0.959 | 1.12 | 0.615
32 | 0.789 | 0.772 | 0.696 | SLVVPYEPPEV [TP53_Y220_V216L] | 0.836 | 0.663 | 1.33 | 1.26 | 0.756 | 1.28 | 0.666 | 0.547 | 0.769 | 1.29 | 0.62 | 0.672 | 0.595
33 | 0.589 | 0.431 | 3.29 | SRDDYYETIAM [NPY1R_Y347_D346Y] | 6.01 | 1.18 | 0.808 | 0.634 | 1.53 | 1.33 | 4.75 | 0.656 | 2.19 | 1.01 | 0.798 | 8.35 | 0.467
